The source of these data is US20070185311A1 (EPIX MEDICAL INC A DELAWARE, published 2007).

Starred links: 1 amine or outer side, 2 acyl side, 3 side chain; linkers in the order of their positions; H or OH if unused. Positions of bridges follow the written chain, without caps; N, C: chain ends. Non-standard residues stand in square brackets, D forms with d. Primed or numbered codes have the meaning given here. No end group written: not given here. Phe(4-OMe) = COc1ccc(C[C@H](N[*:1])C(=O)[*:2])cc1; Phe(F5) = N[C@@H](Cc1c(F)c(F)c(F)c(F)c1F)C(=O)O; Bpa = N[C@@H](Cc1ccc(C(=O)c2ccccc2)cc1)C(=O)O; Tyr(3-Cl) = N[C@@H](Cc1ccc(O)c(Cl)c1)C(=O)O; Bip = N[C@@H](Cc1ccc(-c2ccccc2)cc1)C(=O)O; Tyr(3-F) = N[C@@H](Cc1ccc(O)c(F)c1)C(=O)O; Tyr(3-I) = N[C@@H](Cc1ccc(O)c(I)c1)C(=O)O; Phe(3-OMe) = COc1cccc(C[C@H](N)C(=O)O)c1; Phe(3-Me) = Cc1cccc(C[C@H](N)C(=O)O)c1; Hyp = O=C(O)[C@@H]1C[C@@H](O)CN1; hPhe = N[C@@H](CCc1ccccc1)C(=O)O; 2Pal = N[C@@H](Cc1ccccn1)C(=O)O; 4Pal = N[C@@H](Cc1ccncc1)C(=O)O; NDecylGly = CCCCCCCCCCNCC(=O)O; Phe(4-Et)′ = not defined here; Phg = N[C@H](C(=O)O)c1ccccc1; Ad = adenosine base unit; Gu = guanosine base unit; Dht = not defined here; Taz = not defined here

The chains are these.
B1: F-H-C-Hyp-Y(3-I)-D-L-C-Dht-I (peptide)
peptide: FHC[Hyp][Tyr(3-I)]DLC[Dht]I
modifications: disulfide 3-8 (inferred); reading uncertain; also: printed as F-H-C-Hyp-Y(3-I)-D-L-C-Dht-I
B2: F-H-C-Hyp-Y(3-I)-D-L-C-Taz-I (peptide)
peptide: FHC[Hyp][Tyr(3-I)]DLC[Taz]I
modifications: disulfide 3-8 (inferred); reading uncertain; also: printed as F-H-C-Hyp-Y(3-I)-D-L-C-Taz-I

This test addresses DD(E) fragment of fibrin. In words: affinity to DD(E) fragment of fibrin.
For the molecule [Tyr(26-Me)]HC[Hyp][Tyr(3-I)]DLCHI (disulfide 3-8 (inferred)) [Y(26-Me)-H-C-Hyp-Y(3-I)-D-L-C-H-I], the Kd – broadly, the equilibrium constant for the complex coming apart – is less than 200 nM.

[hPhe]HC[Hyp]YDLCHIL (disulfide 3-8 (inferred)) [Hfe-H-C-Hyp-Y-D-L-C-H-I-L] registered a Kd of less than 500 nM.

Consider FHC[Hyp][Tyr(3-F)]DLCHIL (disulfide 3-8 (inferred)) [F-H-C-Hyp-Y(3-F)-D-L-C-H-I-L], for which the Kd was less than 100 nM.

In turn, FHC[Hyp][Tyr(3-I)]DLCH[Phg] (disulfide 3-8 (inferred)) [F-H-C-Hyp-Y(3-I)-D-L-C-H-Phg] displayed a dissociation constant (Kd) of less than 200 nM.

Turning to YEC[Hyp][Tyr(3-Cl)]GLCWIQ (disulfide 3-8 (inferred)) [Y-E-C-Hyp-Y(3-Cl)-G-L-C-W-I-Q], the dissociation constant Kd was less than 300 nM.

The molecule LPCDYYGTC[NDecylGly]D (not fully specified; cysteine pairing not given here) [L-P-C-D-Y-Y-G-T-C-n(Decyl)G-D] returned a Kd of less than 10000 nM.

With FHCP[Tyr(3-Cl)]DLCHIL (disulfide 3-8 (inferred)) [F-H-C-P-Y(3-Cl)-D-L-C-H-I-L], the dissociation constant (Kd) is less than 200 nM.

As to B1, the Kd was less than 500 nM.

LPCDYYGTC[NDecylGly][dD] (not fully specified; cysteine pairing not given here) [L-P-C-D-Y-Y-G-T-C-n(Decyl)G-dD] showed a dissociation constant Kd of less than 10000 nM.

FHC[Hyp][Tyr(3-I)]DLCH[Phe(4-OMe)] (disulfide 3-8 (inferred)) [F-H-C-Hyp-Y(3-I)-D-L-C-H-F(4-OMe)]: the Kd was less than 100 nM.

For FHC[Hyp][Tyr(3-I)]DLC[4Pal]I (disulfide 3-8 (inferred)) [F-H-C-Hyp-Y(3-I)-D-L-C-4Pal-I], the Kd is less than 200 nM.

As to FHC[Hyp][Tyr(3-I)]DLCH[Bip] (disulfide 3-8 (inferred)) [F-H-C-Hyp-Y(3-I)-D-L-C-H-Bip], the Kd was less than 100 nM.

Molecule FHCPYDLCHIL (disulfide 3-8 (inferred)) [F-H-C-P-Y-D-L-C-H-I-L] yielded a dissociation constant (Kd) of less than 300 nM.

Take Y[dE]C[Hyp][Tyr(3-Cl)]GLCWIQ (disulfide 3-8 (inferred)) [Y-(D-E)-C-Hyp-Y(3-Cl)-G-L-C-W-I-Q]: the dissociation constant Kd is less than 100 nM.

The molecule F[dE]C[Hyp][Tyr(3-Cl)]GLCWIQ (disulfide 3-8 (inferred)) [F-(D-E)-C-Hyp-Y(3-Cl)-G-L-C-W-I-Q] returned a Kd of less than 300 nM.

Consider [Gu]HC[Hyp][Tyr(3-I)]DLCHI (disulfide 3-8 (inferred)) [Gu-H-C-Hyp-Y(3-I)-D-L-C-H-I], for which the Kd is less than 500 nM.

As to FHC[Hyp]YDLCHIL (disulfide 3-8 (inferred)) [F-H-C-Hyp-Y-D-L-C-H-I-L], the Kd is less than 500 nM.

[dF][dE]C[Hyp][Tyr(3-Cl)]GLCWIQ (disulfide 3-8 (inferred)) [(D-F)-(D-E)-C-Hyp-Y(3-Cl)-G-L-C-W-I-Q] yielded a Kd of less than 200 nM.

Molecule [Phe(F5)]HC[Hyp][Tyr(3-I)]DLCHI (disulfide 3-8 (inferred)) [F(F5)-H-C-Hyp-Y(3-I)-D-L-C-H-I] came in with an equilibrium dissociation constant (Kd) of less than 100 nM.

For the molecule B2, the Kd is less than 500 nM.

Take FHC[Hyp][Tyr(3-I)]DLCH[Phe(3-OMe)] (disulfide 3-8 (inferred)) [F-H-C-Hyp-Y(3-I)-D-L-C-H-F(3-OMe)]: the dissociation constant (Kd) was less than 100 nM.

On to [Phe(4-OMe)]HC[Hyp][Tyr(3-I)]DLCHIL (disulfide 3-8 (inferred)) [F(4-OMe)-H-C-Hyp-Y(3-I)-D-L-C-H-I-L], for which the equilibrium dissociation constant (Kd) was less than 100 nM.

FHC[Hyp]YDLCH[Bpa] (disulfide 3-8 (inferred)) [F-H-C-Hyp-Y-D-L-C-H-Bpa] came in with a Kd of less than 300 nM.

Take FHC[Hyp][Tyr(3-I)]DLC[2Pal]I (disulfide 3-8 (inferred)) [F-H-C-Hyp-Y(3-I)-D-L-C-2Pal-I]: the Kd is less than 500 nM.

For the molecule [Phe(4-OMe)]HC[Hyp]YDLCHIL (disulfide 3-8 (inferred)) [F(4-OMe)-H-C-Hyp-Y-D-L-C-H-I-L], the Kd is less than 400 nM.

The molecule [Bip]HC[Hyp]YDLCHIL (disulfide 3-8 (inferred)) [Bip-H-C-Hyp-Y-D-L-C-H-I-L] came in with a dissociation constant (Kd) of less than 500 nM.

As to FEC[Hyp][Tyr(3-Cl)]GLCWIQ (disulfide 3-8 (inferred)) [F-E-C-Hyp-Y(3-Cl)-G-L-C-W-I-Q], the Kd is less than 500 nM.

WECPYGLCWIQ (disulfide 3-8 (inferred)) [W-E-C-P-Y-G-L-C-W-I-Q] gave a dissociation constant (Kd) of less than 200 nM.

FHC[Hyp][Tyr(3-I)]DLCH[Phe(4-Et)′] (disulfide 3-8 (inferred)) [F-H-C-Hyp-Y(3-I)-D-L-C-H-F(4-Et)] returned an equilibrium dissociation constant (Kd) of less than 100 nM.

With FHC[Hyp][Tyr(3-I)]DLC[Bpa]I (disulfide 3-8 (inferred)) [F-H-C-Hyp-Y(3-I)-D-L-C-Bpa-I], the Kd is less than 400 nM.

With [Phe(4-OMe)][His(Bzl)]C[Hyp][Tyr(3-Cl)]DLCH[Bpa] (disulfide 3-8 (inferred)) [F(4-OMe)-H(Bzl)-C-Hyp-Y(3-Cl)-D-L-C-H-Bpa], the Kd was less than 100 nM.

Take [Tyr(3-Cl)]HC[Hyp][Tyr(3-I)]DLCHI (disulfide 3-8 (inferred)) [Y(3-Cl)-H-C-Hyp-Y(3-I)-D-L-C-H-I]: the Kd is less than 100 nM.

Molecule [Ad]HC[Hyp][Tyr(3-I)]DLCHI (disulfide 3-8 (inferred)) [Ad-H-C-Hyp-Y(3-I)-D-L-C-H-I] gave a dissociation constant Kd of less than 400 nM.

FHC[Hyp][Tyr(3-I)]DLCH[Phe(3-Me)] (disulfide 3-8 (inferred)) [F-H-C-Hyp-Y(3-I)-D-L-C-H-F(3-Me)] registered a dissociation constant Kd of less than 200 nM.

FHC[Hyp][Tyr(3-I)]DLCH[nVal] (disulfide 3-8 (inferred)) [F-H-C-Hyp-Y(3-I)-D-L-C-H-nVal] gave a Kd of less than 200 nM.
